Laboratory results from patent US20150037339A1 (Regeneron, published 2015).
Residue numbers refer to the chain shown, from its start.

T1: Activin A (human, UniProt P08476 311-426)
T1 construct: Homodimer of two βA subunits; bought from R&D Systems (#338-AC); also called inhibin-βA dimer; human Activin A
T1 sequence: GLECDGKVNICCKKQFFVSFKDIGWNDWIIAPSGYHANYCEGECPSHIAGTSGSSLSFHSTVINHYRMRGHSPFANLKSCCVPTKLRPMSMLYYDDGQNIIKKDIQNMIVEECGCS

T2: Activin B (human, UniProt P09529 293-407)
T2 construct: Homodimer of two βB subunits; R&D Systems #659-AB
T2 chain: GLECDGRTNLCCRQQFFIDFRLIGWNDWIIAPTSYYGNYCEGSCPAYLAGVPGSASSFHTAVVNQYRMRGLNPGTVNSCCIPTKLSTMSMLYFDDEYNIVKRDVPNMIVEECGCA

B1: H4H10423P (antibody, human IgG4, V domains shown)
VH: QVQLQQSGPGLLKPSQTLSLTCAISGDSVSSNSAAWSWIRQSPSRGLEWLGRTYYRANWFNDYALSVKSRITINPVTSTNHFSLQLHSVTPEDTAVYYCAREGALGYYFDSWGQGTLVTVSS
VL: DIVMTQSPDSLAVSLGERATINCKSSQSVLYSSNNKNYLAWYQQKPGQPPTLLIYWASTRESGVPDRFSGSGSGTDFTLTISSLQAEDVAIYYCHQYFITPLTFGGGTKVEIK
B2: H4H10442P2 (antibody, human IgG4, V domains shown)
VH: QVQLQESGPGLVKPSETLSITCTVSGGSFSSHFWTWIRQPPGKGLEWIGYLHYSGGTSYNPSLKSRVIISVDTSKNQFSLKLNSVTAADTAVYYCARARSGITFGGLIVPGSFDIWGQGTMVTVSS
VL: not shown
B3: H4H10468P2 (antibody, human IgG4, V domains shown)
VH: B2 VH with I20L, T35S, L51I, H52Y, S58H, K64E, I68T
VL: not shown
B4: H4H10446P2 (antibody, human IgG4, V domains shown)
VH: QVQLQESGPGLVKPSETLSLTCTVSGGSFSSHFWSWIRQPPGKGLEWIGYILYTGGTSFNPSLKSRVSMSVGTSKNQFSLKLSSVTAADTAVYYCARARSGITFTGIIVPGSFDIWGQGTMVTVSS
VL: not shown
notes: also called H4H20446

Key:
Activin A [1] = target: T1, Activin A; assay: SPR, captured mAb, 25C
Procedure, shortened: (§1)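 240 s association, 600 s buffer dissociation; ka, kd fitted; KD (M) = kd/ka; t1/2 (min) = ln2/(60*kd).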

Activin A [2] = target: T1, Activin A; assay: SPR, captured mAb, 37C
Procedure, shortened: as §1

Activin B [3] = target: T2, Activin B; assay: SPR, captured mAb, 25C; 25 C
Experimental: (§2) Antibody-antigen association was monitored for 240 seconds while dissociation in buffer was monitored for 600 seconds. Kinetic association and dissociation rate constants were determined by processing and fitting the data using Scrubber software version 2.0c. Binding equilibrium dissociation constants (KD) and dissociative half-lives (t_{1/2}) were then calculated from the kinetic rate constants as: KD (M)=kd/kₐ and t_{1/2} (min)=[ln 2/(60*kd)]. (NB=no binding observed under the conditions used; NT=not tested).

Activin A [4] = target: T1, Activin A; assay: SPR, captured mAb, 37C; no dissociation observed, kd fixed
Experimental: as §2

Activin A [5] = target: T1, Activin A; assay: Octet cross-competition; binder on anti-hFc tip; 50 nM hActivin A pre-bound with 1 uM H4H10429P (col 6); white box
Experimental: (§3) No. 8,309,082) and Control 3 (MAB3381, available from R&D Systems, Inc., Minneapolis, Minn.) were also included in the assays. All assays were performed at 25° C. with a microtiter plate shaking rate of 1000 rpm in Octet HBST buffer (0.01 M HEPES pH7.4, 0.15M NaCl, 3 mM EDTA, 0.05% v/v Surfactant P20, 0.1 mg/mL BSA) according to manufacturer's instructions (ForteBio Corp., Menlo Park, Calif.). […] Any remaining anti-hFc binding sites on the tips were blocked by incubating the tips in a 50 ug/mL solution of irrelevant antibody for 5 minutes.

Activin A [6] = target: T1, Activin A; assay: Octet cross-competition; binder on anti-hFc tip; 50 nM hActivin A pre-bound with 1 uM H4H10430P (col 5); black box
Experimental: as §3

Activin A [7] = target: T1, Activin A; assay: Octet cross-competition; binder on anti-hFc tip; 50 nM hActivin A pre-bound with 1 uM Control 1 (col 10); white box
Experimental: as §3

Activin A [8] = target: T1, Activin A; assay: Octet cross-competition; binder on anti-hFc tip; 50 nM hActivin A pre-bound with 1 uM Control 3 (col 11); white box
Experimental: as §3

Activin A [9] = target: T1, Activin A; assay: Octet cross-competition; binder on anti-hFc tip; 50 nM hActivin A pre-bound with 1 uM H4H10432P2 (col 7); white box
Experimental: as §3

Activin A [10] = target: T1, Activin A; assay: Octet cross-competition; binder on anti-hFc tip; 50 nM hActivin A pre-bound with 1 uM H4H10436P2 (col 8); white box
Experimental: as §3

Activin A [11] = target: T1, Activin A; assay: Octet cross-competition; binder on anti-hFc tip; 50 nM hActivin A pre-bound with 1 uM H4H10440P2 (col 9); white box
Experimental: as §3

Activin A [12] = target: T1, Activin A; assay: Octet cross-competition; binder on anti-hFc tip; 50 nM hActivin A pre-bound with 1 uM H4H10442P2 (col 3); black box
Experimental: as §3

Activin A [13] = target: T1, Activin A; assay: Octet cross-competition; binder on anti-hFc tip; 50 nM hActivin A pre-bound with 1 uM H4H10446P2 (col 1); black box
Experimental: as §3

Activin A [14] = target: T1, Activin A; assay: Octet cross-competition; binder on anti-hFc tip; 50 nM hActivin A pre-bound with 1 uM H4H10468P2 (col 2); black box
Experimental: as §3

Activin A [15] = target: T1, Activin A; assay: Octet cross-competition; binder on anti-hFc tip; 50 nM hActivin A mixed with 1 uM Isotype control 12 (-) (col 12); dark grey box
Experimental: as §3

Activin A [16] = target: T1, Activin A; assay: Octet cross-competition; binder on anti-hFc tip; 50 nM hActivin A mixed with 1 uM Isotype control 13 (-) (col 13); dark grey box
Experimental: as §3

Activin B [17] = target: T2, Activin B; assay: SPR, captured mAb, 25C
Procedure, shortened: as §1

Activin B [18] = target: T2, Activin B; assay: SPR, captured mAb, 37C
Procedure, shortened: as §1

Activin A [19] = target: T1, Activin A; assay: SPR, captured mAb, 25C; no dissociation observed, kd fixed
Experimental: as §2

Activin A [20] = target: T1, Activin A; assay: Octet cross-competition; binder on anti-hFc tip; 50 nM hActivin A pre-bound with 1 uM H4H10423P (col 4); black box
Experimental: as §3

Activin A [21] = target: T1, Activin A; assay: Octet cross-competition; binder on anti-hFc tip; 50 nM hActivin A pre-bound with 1 uM H4H10430P (col 5); white box
Experimental: as §3

Row | Binder | Activin A-20 nM (RU) (Activin A [1]) | Kd (Activin A [1]) | kon (Activin A [1]) | t1/2 (Activin A [1]) | Activin A-20 nM (RU) (Activin A [2]) | Kd (Activin A [2]) | kon (Activin A [2]) | t1/2 (Activin A [2]) | koff (Activin A [4]) | binding response (Activin A [5]) | binding response (Activin A [7]) | binding response (Activin A [8]) | binding response (Activin A [9]) | binding response (Activin A [10]) | binding response (Activin A [11]) | binding response (Activin A [12]) | binding response (Activin A [13]) | binding response (Activin A [14]) | binding response (Activin A [15]) | binding response (Activin A [16]) | other results
1 | B1 | 19.4 RU | 32.6 pM | 3.33e+06 M⁻¹ s⁻¹ | 1.77 h | 25.2 RU | ≤ 12.6 pM | 3.95e+06 M⁻¹ s⁻¹ | ≥ 3.85 h | ≤ 5e-05 s⁻¹ | 1.48 | 0.6 | 0.79 | 1.32 | 1.49 | 1.31 | 0.59 | 0.51 | 0.58 | 0.39 | 0.26 | koff (Activin A [1]): 0.000109 s⁻¹; Kd (Activin B [3]): 61800 pM; koff (Activin B [3]): 0.0302 s⁻¹; kon (Activin B [3]): 489000 M⁻¹ s⁻¹; t1/2 (Activin B [3]): 24 s; binding response (Activin A [6]): 0.28
2 | B2 | 31.3 RU | ≤ 4.55 pM | 1.1e+07 M⁻¹ s⁻¹ | ≥ 3.85 h | 40.5 RU | ≤ 3.48 pM | 1.44e+07 M⁻¹ s⁻¹ | ≥ 3.85 h | ≤ 5e-05 s⁻¹ | 1.55 | 0.99 | 0.99 | 1.59 | 1.44 | 1.5 |  | 0.35 | 0.36 | 0.46 | 0.26 | 50 nM Ag Bound (RU) (Activin B [17]): 3.4 RU; binding result (Activin B [17]): no binding (tested: 50 nM); 50 nM Ag Bound (RU) (Activin B [18]): 4.4 RU; koff (Activin A [19]): ≤ 5e-05 s⁻¹; binding response (Activin A [20]): 0.27; binding response (Activin A [21]): 1.33
3 | B3 | 21.7 RU | ≤ 6.36 pM | 7.86e+06 M⁻¹ s⁻¹ | ≥ 3.85 h | 24.5 RU | ≤ 4.1 pM | 1.22e+07 M⁻¹ s⁻¹ | ≥ 3.85 h | ≤ 5e-05 s⁻¹ | 1.68 | 1.08 | 0.79 | 1.73 | 1.66 | 1.7 | 0.4 | 0.33 |  | 0.41 | 0.28 | 50 nM Ag Bound (RU) (Activin B [17]): 6.2 RU; 50 nM Ag Bound (RU) (Activin B [18]): 3.4 RU; binding result (Activin B [18]): no binding (tested: 50 nM); koff (Activin A [19]): ≤ 5e-05 s⁻¹; binding response (Activin A [20]): 0.41; binding response (Activin A [21]): 1.41
4 | B4 | 24.1 RU | ≤ 3.88 pM | 1.29e+07 M⁻¹ s⁻¹ | ≥ 3.85 h | 31.5 RU | ≤ 3.25 pM | 1.54e+07 M⁻¹ s⁻¹ | ≥ 3.85 h | ≤ 5e-05 s⁻¹ | 1.61 | 0.83 | 1.21 | 1.68 | 1.61 | 1.67 | 0.39 |  | 0.36 | 0.47 | 0.26 | 50 nM Ag Bound (RU) (Activin B [17]): 3.6 RU; 50 nM Ag Bound (RU) (Activin B [18]): 3.8 RU; binding result (Activin B [18]): no binding (tested: 50 nM); koff (Activin A [19]): ≤ 5e-05 s⁻¹; binding response (Activin A [20]): 0.33; binding response (Activin A [21]): 1.39
